The assay concerns the target T1, Cyt1Aa (Bacillus thuringiensis subsp. …, UniProt P0A382).
T1 chain: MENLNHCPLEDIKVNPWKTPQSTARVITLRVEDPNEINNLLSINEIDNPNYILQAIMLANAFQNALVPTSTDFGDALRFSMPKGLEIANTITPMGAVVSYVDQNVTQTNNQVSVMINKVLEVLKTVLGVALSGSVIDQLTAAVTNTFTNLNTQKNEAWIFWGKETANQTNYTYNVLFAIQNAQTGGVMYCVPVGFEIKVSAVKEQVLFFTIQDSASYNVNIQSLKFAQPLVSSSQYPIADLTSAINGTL
As to the kind of experiment: ELISA.

B1: Cry4Ba (protein)
chain: NSGYPLANDLQGSMKNTNYKDWLAMCENNQQYGVNPAAINSSSVSTALKVAGAILKFVNPPAGTVLTVLSAVLPILWPTNTPTPERVWNDFMTNTGNLIDQTVTAYVRTDANAKMTVVKDYLDQYTTKFNTWKREPNNQSYRTAVITQFNLTSAKLRETAVYFSNLVGYELLLLPIYAQVANFNLLLIRDGLINAQEWSLARSAGDQLYNTMVQYTKEYIAHSITWYNKGLDVLRNKSNGQWITFNDYKREMTIQVLDILALFASYDPRRYPADKIDNTKLSKTEFTREIYTALVESPSSKSIAALEAALTRDVHLFTWLKRVDFWTNTIYQDLRFLSANKIGFSYTNSSAMQESGIYGSSGFGSNLTHQIQLNSNVYKTSITDTSSPSNRVTKMDFYKIDGTLASYNSNITPTPEGLRTTFFGFSTNENTPNQPTVNDYTHILSYIKTDVIDYNSNRVSFAWTHKIVDPNNQIYTDAITQVPAVKSNFLNATAKVIKGPGHTGGDLVALTSNGTLSGRMEIQCKTSIFNDPTRSYGLRIRYAANSPIVLNVSYVLQGVSRGTTISTESTFSRPNNIIPTDLKYEEFRYKDPFDAIVPMRLSSNQLITIAIQPLNMTSNNQVIIDRIEIIPITQSVLDETENQNLESEREVVNALFTNDAKDALNIGTTDYDIDQAANLVECISEELYPKEKMLLLDEVKNAKQLSQSRNVLQNGDFESATLGWTTSDNITIQEDDPIFKGHYLHMSGARDIDGTIFPTYIFQKIDESKLKPYTRYLVRGFVGSSKDVELVVSRYGEEIDAIMNVPADLNYLYPSTFDCEGSNRCETSAVPANIGNTSDMLYSCQYDTGKKHVVCQDSHQFSFTIDTGALDTNENIGVWVMFKISSPDGYASLDNLEVIEEGPIDGEALSRVKHMEKKWNDQMEAKRSETQQAYDVAKQAIDALFTNVQDEALQFDTTLAQIQYAEYLVQSIPYVYNDWLSDVPGMNYDIYVELDARVAQARYLYDTRNIIKNGDFTQGVMGWHVTGNADVQQIDGVSVLVLSNWSAGVSQNVHLQHNHGYVLRVIAKKEGPGNGYVTLMDCEENQEKLTFTSCEEGYITKTVDVFPDTDRVRIEIGETEGSFYIESIELICMNE
modifications: trypsin-activated Cry4Ba, proteinase K-activated Cyt1Aa
For orientation: Kd means the constant that tells how readily two partners part at equilibrium. A low value points to higher affinity. B1: the affinity, expressed as Kd, was 47 nM.
